From patent US20250340636A1 (Memorial Sloan Kettering, published 2025)

What was measured:
[1] = target: T1, human L1CAM on cells (human, UniProt P32004 20-1257); assay: flow cytometry, MCF-7 cells, AlexaFluor 647 anti-human Fc secondary
T1 construct: Overexpressed on stably transfected HEK293T cells or endogenous on MCF-7 and MDA-MB-231 cells; also called HEK293T-hL1CAM
Procedure: (§1) Binding to L1CAM on Cells. […] Cells were then incubated with an AlexaFluor 647 goat anti-human Fc secondary antibody. After washing, the stained cells were analyzed by flow cytometry.
(§2) The binding curves for each antibody and cell line normalized to secondary antibody only staining (MFI ratio) are shown in FIGS. 14A-14C. EC50 values were determined by non-linear regression (Table 70). […] It is possible that differences in the conformation and oligomerization of L1CAM, depending on the surface expression level, contributed to the binding pattern. […] An avidity effect due to high levels of L1CAM surface expression may have contributed to the strong binding observed in this experiment.

[2] = target: T2, human CHL-1 (residues 25-1096 with a C-terminal 10xHis tag) (human, UniProt O00533 25-1096); assay: ELISA, plates coated with human CHL-1
T2 construct: range 25-1096; also called L1CAM-2; L1CAM2
T2 sequence: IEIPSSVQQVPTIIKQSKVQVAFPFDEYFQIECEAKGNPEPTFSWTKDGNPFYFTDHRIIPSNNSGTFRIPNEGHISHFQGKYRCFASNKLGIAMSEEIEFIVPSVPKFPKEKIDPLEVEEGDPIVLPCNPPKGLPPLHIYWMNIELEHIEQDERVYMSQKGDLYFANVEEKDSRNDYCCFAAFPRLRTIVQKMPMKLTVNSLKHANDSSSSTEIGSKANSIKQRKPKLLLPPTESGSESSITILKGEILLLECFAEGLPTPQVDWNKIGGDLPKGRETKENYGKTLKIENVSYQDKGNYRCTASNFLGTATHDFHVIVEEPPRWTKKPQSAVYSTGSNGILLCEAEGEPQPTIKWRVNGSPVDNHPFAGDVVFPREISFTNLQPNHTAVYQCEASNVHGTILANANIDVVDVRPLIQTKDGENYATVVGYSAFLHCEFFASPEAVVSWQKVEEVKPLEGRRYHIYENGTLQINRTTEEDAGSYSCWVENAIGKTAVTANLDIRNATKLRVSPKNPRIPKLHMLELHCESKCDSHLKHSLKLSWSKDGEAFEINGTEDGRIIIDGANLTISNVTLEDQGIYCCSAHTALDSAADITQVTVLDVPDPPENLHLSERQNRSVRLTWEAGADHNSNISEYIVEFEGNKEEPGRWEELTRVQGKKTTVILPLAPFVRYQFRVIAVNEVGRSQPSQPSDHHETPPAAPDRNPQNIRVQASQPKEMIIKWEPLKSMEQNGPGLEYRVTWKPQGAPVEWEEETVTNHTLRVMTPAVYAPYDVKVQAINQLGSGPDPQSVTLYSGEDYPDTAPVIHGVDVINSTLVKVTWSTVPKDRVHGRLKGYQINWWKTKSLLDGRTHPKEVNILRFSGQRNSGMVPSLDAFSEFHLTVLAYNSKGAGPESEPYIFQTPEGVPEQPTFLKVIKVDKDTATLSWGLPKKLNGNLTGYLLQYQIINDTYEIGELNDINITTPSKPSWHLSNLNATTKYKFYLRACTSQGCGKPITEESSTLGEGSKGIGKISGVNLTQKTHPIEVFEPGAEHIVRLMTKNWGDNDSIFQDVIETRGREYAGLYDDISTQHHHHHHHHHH
Text: Selectivity. […] These proteins are other members of the L1 family of cell adhesion proteins and have between 49% and 55% sequence similarity with L1CAM in the extracellular portion. […] Positive control antibodies were included for each homolog. […] Epitope. The extracellular portion of L1CAM contains six immunoglobulin-like (Ig) domains and five fibronectin type III (FN) domains. To narrow down the binding region of the development candidate mAbs, truncated versions of human L1CAM protein (Ig domain, residues 21-605; FN domain, residues 606-1116; each with a C-terminal 6×His tag) were recombinantly produced, followed by a BLI experiment to test binding at 50 and 100 nM. […] 6×His tag is set forth in SEQ ID NO: 316.

[3] = target: T3, soluble mouse L1CAM (monomer), His-tagged (mouse, UniProt P11627 20-1123, limits assumed); assay: BLI (Octet Red96e), His-tagged mouse L1CAM on Ni-NTA biosensors, mAb as analyte, 1:1 fit
T3 construct: read as mouse
T3 sequence (P11627 20-1123 limits assumed): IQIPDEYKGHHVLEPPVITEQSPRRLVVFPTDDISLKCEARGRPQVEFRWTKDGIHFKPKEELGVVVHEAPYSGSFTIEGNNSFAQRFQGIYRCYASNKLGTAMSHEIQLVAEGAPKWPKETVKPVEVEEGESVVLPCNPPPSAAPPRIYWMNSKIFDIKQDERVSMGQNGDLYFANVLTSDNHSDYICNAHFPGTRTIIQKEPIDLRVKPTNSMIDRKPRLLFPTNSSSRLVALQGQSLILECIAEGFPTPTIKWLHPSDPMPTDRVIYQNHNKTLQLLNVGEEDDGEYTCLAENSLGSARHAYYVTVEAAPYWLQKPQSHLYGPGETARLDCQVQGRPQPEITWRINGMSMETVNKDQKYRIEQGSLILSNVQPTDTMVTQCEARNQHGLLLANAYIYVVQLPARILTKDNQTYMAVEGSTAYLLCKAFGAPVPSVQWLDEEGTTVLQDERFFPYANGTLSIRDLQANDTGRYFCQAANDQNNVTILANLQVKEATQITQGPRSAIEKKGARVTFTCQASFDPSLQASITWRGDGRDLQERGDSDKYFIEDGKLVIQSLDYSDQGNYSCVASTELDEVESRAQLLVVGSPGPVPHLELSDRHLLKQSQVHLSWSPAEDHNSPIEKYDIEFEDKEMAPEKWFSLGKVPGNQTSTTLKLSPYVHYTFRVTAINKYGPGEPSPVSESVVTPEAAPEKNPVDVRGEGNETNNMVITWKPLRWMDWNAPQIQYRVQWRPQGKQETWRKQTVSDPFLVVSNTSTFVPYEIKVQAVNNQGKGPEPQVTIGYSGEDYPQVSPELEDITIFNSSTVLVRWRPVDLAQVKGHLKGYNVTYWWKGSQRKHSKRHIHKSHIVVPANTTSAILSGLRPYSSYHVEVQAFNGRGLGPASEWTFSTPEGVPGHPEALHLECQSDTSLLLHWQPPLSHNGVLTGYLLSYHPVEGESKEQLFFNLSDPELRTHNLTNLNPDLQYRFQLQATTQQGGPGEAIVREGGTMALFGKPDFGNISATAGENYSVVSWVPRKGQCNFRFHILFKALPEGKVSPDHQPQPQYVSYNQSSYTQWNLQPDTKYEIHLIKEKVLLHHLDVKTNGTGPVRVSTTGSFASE
Procedure: (§3) Cross-reactivity to Mouse L1CAM. Affinity to mouse L1CAM was measured by BLI using an Octet Red96e instrument. […] The data was prepared by reference well subtraction, and response curves were globally fit to a 1:1 Langmuir binding model.

[4] = target: T1, human L1CAM on cells; assay: flow cytometry, MDA-MB-231 cells, AlexaFluor 647 anti-human Fc secondary
Procedure: as §1, §2

[5] = target: T4, soluble cynomolgus monkey L1CAM, His-tagged, monomeric (cynomolgus monkey, UniProt A0A2K5URB5 20-1120); assay: summary table; soluble cynomolgus monkey L1CAM (monomer)
T4 construct: also called cyL1CAM protein; cynomolgus L1CAM-His
Procedure: Cross-reactivity to Cynomolgus Monkey L1CAM. Affinity to cynomolgus L1CAM was measured by BLI using an Octet Red96e instrument. […] The data was prepared by reference well subtraction, and response curves were globally fit to a 1:1 Langmuir binding model.

[6] = target: T3, soluble mouse L1CAM (monomer), …; assay: BLI, mouse against human L1CAM-His
Procedure: as §3

[7] = target: T1, human L1CAM on cells; assay: flow cytometry, HEK293T-hL1CAM cells, AlexaFluor 647 anti-human Fc secondary
Procedure: as §1, §2

[8] = target: T1, human L1CAM on cells; assay: summary table; binding to cells with endogenous L1CAM (MDA-MB-231)
Procedure: as §1, §2

[9] = target: T1, human L1CAM on cells; assay: summary table; binding to cells with endogenous L1CAM (MCF-7)
Procedure: as §1, §2

T1 sequence (P32004 20-1257): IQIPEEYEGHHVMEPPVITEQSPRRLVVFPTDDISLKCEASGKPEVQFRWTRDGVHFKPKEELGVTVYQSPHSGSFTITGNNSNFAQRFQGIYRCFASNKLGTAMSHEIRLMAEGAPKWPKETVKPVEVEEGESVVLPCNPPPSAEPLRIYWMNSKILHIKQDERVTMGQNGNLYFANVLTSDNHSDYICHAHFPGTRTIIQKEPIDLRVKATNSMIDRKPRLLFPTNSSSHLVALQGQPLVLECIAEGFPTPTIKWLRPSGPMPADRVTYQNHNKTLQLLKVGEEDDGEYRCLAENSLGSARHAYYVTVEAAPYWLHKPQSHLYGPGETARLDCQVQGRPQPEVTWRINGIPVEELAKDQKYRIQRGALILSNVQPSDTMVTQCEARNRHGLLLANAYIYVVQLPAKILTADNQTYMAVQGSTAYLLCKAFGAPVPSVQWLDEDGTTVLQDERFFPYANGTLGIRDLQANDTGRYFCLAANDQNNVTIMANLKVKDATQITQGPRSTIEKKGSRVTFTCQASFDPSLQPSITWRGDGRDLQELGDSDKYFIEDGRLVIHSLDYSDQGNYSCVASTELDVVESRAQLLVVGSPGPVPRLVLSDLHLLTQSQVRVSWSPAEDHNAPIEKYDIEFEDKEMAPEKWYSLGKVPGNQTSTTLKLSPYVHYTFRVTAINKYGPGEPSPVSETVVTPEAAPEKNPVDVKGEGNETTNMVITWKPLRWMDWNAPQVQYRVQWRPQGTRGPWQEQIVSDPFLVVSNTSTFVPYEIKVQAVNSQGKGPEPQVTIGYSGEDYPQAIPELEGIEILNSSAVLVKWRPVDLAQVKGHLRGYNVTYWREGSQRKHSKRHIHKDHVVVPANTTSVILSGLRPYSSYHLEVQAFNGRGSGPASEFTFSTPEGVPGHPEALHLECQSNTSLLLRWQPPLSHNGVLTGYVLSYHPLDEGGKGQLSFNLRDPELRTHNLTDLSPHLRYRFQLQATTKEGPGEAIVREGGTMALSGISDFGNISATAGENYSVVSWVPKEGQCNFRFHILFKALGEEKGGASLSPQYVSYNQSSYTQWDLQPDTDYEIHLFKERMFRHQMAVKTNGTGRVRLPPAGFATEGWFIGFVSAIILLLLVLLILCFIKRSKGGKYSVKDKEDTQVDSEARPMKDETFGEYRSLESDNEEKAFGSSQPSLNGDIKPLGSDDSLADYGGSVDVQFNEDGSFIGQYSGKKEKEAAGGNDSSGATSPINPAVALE

B1: TDI-Y-005 (antibody, human IgG1, kappa, V domains shown)
VH: EVQMVESGGGLVQPGGSLRLSCAAPGFIFSSYNMNWVRQAPGKGLEWVSYISSSSSTTYYADSVKGRFTISRDNAKNSLYLQMNSLRDEDTAVYYCASLYSGYDYYYYYGMDVWGQGTTVTVSS
VL: DIVMTQTPLSSPVSLGQPASISCRSSQSLVHSDGNTYLSWLQQRPGQPPRVLIYKISKRFSGVPDRFSGSGAGTDFTLKISRVEAEDVGVYYCMQATQFPFTFGPGTKVDIKR
notes: Human IgG1, kappa; also called human 14A10 mAb; fully human 14A10 mAb
EC50 [1]: 2.5 nM
binding result [2]: no binding (tested: 1 µM)
Kd [3]: 34 nM
koff [3]: 0.0011 s⁻¹
kon [3]: 31000 M⁻¹ s⁻¹
EC50 [4]: 7.1 nM
Kd [5]: 1.3 nM
koff [5]: 0.00012 s⁻¹
kon [5]: 93000 M⁻¹ s⁻¹
fold difference of KD against human L1CAM [6]: ≤ 8 fold
EC50 [7]: 2 nM
EC50 [8]: 7.1 nM
EC50 [9]: 2.5 nM
